The DeepSol protein solubility set

Assay: soluble on expression in E. coli; label from the status in PepcDB or PDB records

| Sequence | soluble on expression in E. coli |
| --- | --- |
| MPPKKTQKSGLLQFFAKQQQEKYQNSSKNEETTEHDDSCQILFEKQVAGPSKVSKPIGFPTTPKNTTKWAETLQKSSEKAGRDWLNPFPIRVSSAKKEIEKNSKTELLAKGFDDIHGNGIFYPINEPIRNFELNLLKCLSSSNCCVALPSSSPSTPGRICAMTVFNFLKWFPRCRVLLVSSSDSWISSLRQLGLESQTTKLTTVTQFKNLKTEAGKILVCTTPQCALKVVESTGGREFLEEIRLVLMELKPNECCSKYKPILNALTVKETFFRCSVLTTSTSNASRRTASITKRQQMITNLQLSDWIEQTEADFAFRSANIPAGVEVKTWKSEDNSAKHAEITGKFEKYCEKTIDDLARQCIVSSKSVKKLIWTCWKTLKQQSKLPEIEKKKLEISEFLTCTYKLLIIDGVVAARNFVKKHSEIPHIKEHAEKILEPTIFGGFSEFPAKFQQLSDSIEAFLKMDNHVLGVILCRDSDQAIEIQNYLELQLTTRCTCVRIIEEGTHPGRNLWNIQRISTVFIDRKSPKIVILPVKIRDFIGFSDGLPLSELTFIASISRDSLFNFRRFGGAHLLIINDPLEKLRNEDGRLLVDDGKFVQNNSKNAPKMGAVERYDFKFEPSRLRIDATHLPIQFFYPRDVGVTFDETAGISQLGKTHIEMTSKEHTELFKRLQNPDFSRFQRRKRVFWVLEDLEHPNENKSIPIEEMDETQLCWNQDIQYLGEIKSSKLSERLTRYMKDEPVEWIINEKRRFEYINEITSTDRLVHLDRLLRNLDAHFQVLSSC | not soluble |
| MATPTEKQILTLAQWFSPAYPVGAFAYSHGLEWSVEAGDVVDARTAQAWITDVLQHGAGWNDCLFIGSAYRAASLQELKNINDTALAFSASSERMMETRLQGEAFCGITASVWPVDLAGLCYPVAVGRAANLVGLPLTLSGQFYLHAFMANLVTAATRLVPLGQTEGQQIIRDLTPLCQAIADTALCANLSHLTSTAFLGDIAAMKHETQYSRMFRTLEHHHHHH | not soluble |
| MSLANKKFWLITDTHFDDEFTVGSSSKCLAIDCCHSNSIPRKGQENFISGSCGDYNCYSPLNVSESAFDYIAKHQSESKLIFWLMDVVPGDVITQSKETNKKRIQLQVEALKKRLSGFRIYPVPGNHDYWLSSNWQYPPQNQWMLDFMGDLFKDWLSPNALEQFKKGGFYTELIDSGVRIIALYLAYVDVYGSHCNEYVENDPAGMMKWFNETLELARKNGERVILLSHEGVGLKESGTIDVVPKFNEDFSYAMNEYSDIIISHLSGHSHFNSFRVLPNITKPTFHIIMNPAMTSFKNLNPRFRLYEYDRKNIKDYTNYMLNINKCNKNNKFEWEIEYNAKELFGIEEYTTKNLKEFIEQLAVDDELWTKFDSHYSTINRKCEGNCRKDLLCSIHCMKESEFITCINQKEGHHHHHH | not soluble |
| MNETEFYAYHIVTRKKMHIGQMIPFNKNQHNTLYHFFFEREQLNANGEDGIQILNNHYKNDELHINNENAKVVISYMDQTIRAARETIVEMVRLQEFPEYPSRLSCLYAAKSYEDALKWKALFDSYNREVLQIVKLRVIGSSFEGDGNLLPKEDGIPFSQKIEQARKYWKGNIRNELPELLINGEIEVVEIIDDFSSIHI | soluble |
| MGSDKIHHHHHHMKLGFITSILDSWTYEEMMDFASGQGFECVEVACWPQEKAERRYAGVSHIDAERVNQDDAYAEHIVEYAKKSGVEISALAYYPNVMVADKEKSATAVEHLKQVILASKKLGVGMVTTFIGRDQTKNIQENLELVKEIWPPIIKLAEECDVKIAIENCPMLFGKEQWPGGQNLMTTPPIWREVFRILDSDHLGINYDPSHFIWQMIDYIRPLYEFKDKIFHVHYKDIKIYKDKLESCGIMAYPLEYMSPKIPGLGDVDWGKYVSALTDIGYDGYTCIEIEDKAFEDFKEKVENSLIISKRYLEQYVI | not soluble |
| QGFSQEKYAHNALNRRGFIELKSQARGQISTGGQVLAESYQDEEGFYQRRYVTNPAIYGPIEGYLSDIYGASGMESNLNGVLSGTDSSVSVRRWTDELLGRKHSGANVELTLLPQVQEVAYNQMANAGYEGAVVAIKPSTGEILAMASTPSYDPSAIVNPDTAEQTWAALNADPGNPLLNHATQETLPPGSTFK | not soluble |
| MYGRKLYNVDQTNVYASLMFETEFNKQNSFSAGLSFNYDAYDQHYRLENQTELPLIKAFAKEAVPGAYAQYTLNLNDQWMLMAGLRGDYSNEHGFFVTPRAHLKYNPNEYVHFRLSAGKGYRTNHVLAENNYLLSSSRKVEIAKGLDMEEAWNYGASVSTYVPVFGKTLNINAEYYYTDFLKQVVVDMDSNPHEVAFYNLDGRSYSHVFQVEASYPFFKGFTLTGAYRLTDAQTTYKGQRMEKPLTSKYKGLLTASYQTPLGIWQFDATLQLNGGGRMPSPYELADGQLSWERRYGSFEQLSAQITRYFRRWSVYIGGENLTNFKQKNPIIDAANPWGGNFDSTMIWGPVHGAKAYIGIRFNLARNE | not soluble |
| MAHLQYRDGDWYLHASMRKVEAGEGTSESESKHRTVLGVDLGVNNLAVASTGRFWSAGEFNHWRREYEKRRALLQQCGSRHAHENIESVGQKEYGRFEIYLHTVANELIEEAIENDCSHIVFEDLTHIRENIPEATWQHVWAFRRLYEYVEYKAKENGVEAVQVDPRNTSKRCLTCGFTHDDNRNGESFKCQQCGYENHADYNASKNIGLQYLRRRQNADDGGAPVDVRLNRGTLNVSGEYAHPASTEALEHHHHHH | not soluble |
| MGEEILTERNQLSRQDASCFRSPRSPLGRTDDAFFELDDDDDLSSPSVPGSPVDPPSISVPLPPKSAPPCPTQPAPLTNGDLYPTILSNGTPIPNGRITPALSTVSVSLIHEARLQQSLSTPCNGSEEEMHNGQVRKESEYRRFKSEGSTAGASLPAAEKTHMDELSPVDQRSTSGTARFLIQQDSVVNPSTKMSNTEQVAMMHTLKTKLSKYQAMMDKAFEEIAKVEDANIIEGCTIVRKLMRKVWNTPKVSADLANALCDYLRDRDYFDKLIKMFISPNTAACDQVRMECGKVLEECTSSANLEYIVNKSYTKKIMIVAMKLNKTPDQQRLSLSLIGNLFKHSNAVSLSLIETDVIDHIILTFKRAPECPDILRHAALALANILLYTCFEGKKKIIQKKIPEWLFFLASQADDVTRYYACIAVCTIVSVKEFEPLVRKSDTMKLVEPFLQVHDPATFARDYHKYAQGNTKEWLERLLPMLQPSRRREARSVAAFHFTLEATIKKEQNKLDVFQEIGAIQALKEVASSPDEVAAKFASEALTVIGEEVPYKLAQQVPGWTCADVQYWVKKIGFEEYVEKFAKQMVDGDLLLQLTENDLKHDVGMISGLHRKRFLRELQTLKVAADYSSVDESNLDNFLMGLSPELSVYTYQMLTNGVNRSLLSSLTDEMMQNACGITNPIHRLKLTQAFETAKHPDDVEVAMLSKQIDVFISYRRSTGNQLASLIKVLLQLRGYRVFIDVDKLYAGKFDSSLLKNIQAAKHFILVLTPNSLDRLLNDDNCEDWVHKELKCAFEHQKNIIPIFDTAFEFPTKEDQIPNDIRMITKYNGVKWVHDYQDACMAKVVRFITGELNRTTPTTKEMPSISRKTTQQRWQTTNTVSRTGPSRSIGGPRMEPPTPTFFSVTPTGSQERATSTRRKIQPSASTTSDRN | not soluble |
| AEESSKAVKYYTLEEIQKHNNSKSTWLILHYKVYDLTKFLEEHPGGEEVLREQAGGDATENFEDVGHSTDARELSKTFIIGELHPDDRSKITKPSESIITTIDS | soluble |
| SNKDLVHIGVLQYVEHPSLSATRKGFIEELKEEGYVDGKNIKIDYQNAQGDQSNLQTISQSLIEDNDVMLAIATPAAQSLSSLTKGKPILFTAVTDPVSAKLVKSMDNVGGNVTGTSDMSPINKQVELLKKVFPNTKKVGIMYTTSERNSEVQVEEAKKYFKEAGIETVIKGISSTNDIQDTAKSLMSQTEVIFIPTDNTIVSAINTLVDLSKETKVPVVGSDAGSVEKGVLFTYGTNYEALGRQTGKLAGRVLRGEKVKDIDAEYPKTLNVVVNHDMAKKLGIDVSSISDEESKVSTKDDKPIAK | not soluble |
| MLDLFADEAPWQEPLAPGAVVLRRFAFRAAQSLLDDIGFVASQSPFRQMVTPGGYTMSVAMTNCGALGWTTDRHGYCYAVRDPLTDKPWPALPLSFASVCRQAAIAAGYASFQPDACLINRYAPGAKLSLHQDKDEPDLRAPIVSVSLGVPAVFQFGGLRRSDPIQRILLEHGDIVVWGGESRLFYHGIQPLKAGFHPMTGEFRYNLTFRQAAEKELEHHHHHH | soluble |
| MAFNIESLLEKKSNPVEEGNDFEEENDSEKNGEEDEEEEEKNVIDGWTNMATSQLAMFAIANDLRTPTLVELQMLLGVSARKHDYKRSRKSVCERKPRQAYSARQLDRLETEFQTDKYLSVNKRIQLSQTLNLTETQIKTWFQNRRTKWKKQLTSSIRQMVKDAPTSTSVGVPFQSLLTPPTPPTTLACHVNSLFACEQ | not soluble |
| MAKNSRSKTQFENMKYEIAKEVGVNLKQGYNGDLTAREAGKIGGNIVKKVFQSYTGNSYPSERLGDTSR | not soluble |
| MQGKDNYQEQQEINSTDEEGMIFQLADTTIQACNAAAERIIGYKNEQILGKTPFKPPWQIVHEDGTIFTPETVPPIVALQTGKPCKNVVMGLYQPTGQLVWLLLNSQPLFQTNKSTPYAVVTTFTDFTKVKCRQSRSDACITNNKKLIVTWNQDQAVEISPNTDKQKLNQPVAEPISDDCTKAFLSMQNHILELIATGNSLSEILEKLAQSIEAQLAEVFCSIMLLNDTGTKLYPGVSSSLPEKYIQELKNGVPVGADVGSCGTSAYTKQTVIVSDIASDHKWVKYRDLTLTNNLKACWSTPILDSQGHVLGTFALYYPTVRIPQKSDLQLIERASHLAGVAIERQRWQLALQQSEYQLRLMTETIPQQVWTAQPNGLVDYYNQRWCDFTGKTQEQLKTESWEQIIHPEDLPKVEELWAKAVQTGSDYEVETRMLSGSGEYHWILGQARPLRNQQGQIVKWYGTNTDITDHIQAREALRESELNFRTLADTMPQMIWTAKGDGWLEYCNQRWLDYTGMTLEETQGWGWQPVLHPDDAQICIDIWSESVRTGQNYQIEYRLRRARDGQYRWHLGRAFPLRNQKGQIIKWFGSCTDIDDHKRSEEALRNALQEKQAAYEAAETANRVKDEFLAILSHELRTPLNPILGWSQLLKTGKLDKDKTDEALKSIERNAKLQVDLIDDLLDVSRILRGKLTLNVTTVNLADIISAALETMSLAASVKQIAVQTLIEPNIGKVRGDPARLQQIVWNLLSNAIKFTPQGGEVVVQLEQIGSMAHIIVSDQGKGINRKFLPHIFEHFRQEDGSTTRKFGGLGLGLAIVRHLVELHGGTVEADSPGEGQGTTLKVILPLISSLPVTVTNGQFEDVALSLKGIKILVVDDDVDSLAFVKVVLELYEATVTTAASAPEALQIGVQLKPDVLISDIGMPEMDGYELLRRMRALSSDLGGDIPAVSKAIPKAIALTAFAGELDEQQAMAAGFQIHIPKPVEPEALAAAVAQVLKINV | not soluble |
| MIKIPQAGRDLETIAVIGAGTIGSAISISLAKAGYHVISTRRRPDLNAGLKAYGITVTSDNVQAVTSADMVILTLKPADLVSEMKKLSQILEGKIVVSMAAAVPIRVIRHILPRSFIVRSMTNIAAEVNAGYTPFCTLEEDEGKISFVSRVLGVFGETERVDEKYMDALTAL | not soluble |
| MKFSDFFHAWLHESYYKNAVSIGKNGDFFTAVSVGNLFGTLLAKHFLNLIDEKILKPPLELVEIGANEGYLSRDFLAALLELRPEIFSQISFFIIEPHEKLRTLQKKTLEGVEFTHKNSLKECHFKNAFFFCNELFDSFTCELIDHDKMAFVENFKLIFKNMDENLITKCKALNLTKGELSLELENFFKDLNQTCERFIFAGFDYGTLNPQSFSLRIYQKHEVFSPFEVSLKDFFGKSDLTYNVNFTHLQKLIKEYDFKPLAFKKQSLAFMDFGFEDLLEYAKNKNIKTYESFLSQAKILFFNFDEKFHFFEFQKNMGHHHHHHSH | soluble |
